From publication PMC6377682, “ASPP proteins discriminate between PP1 catalytic subunits through their SH3 domain and the PP1 C-tail” (Nature Communications, 2019)

B1: human ASPP2^920-1120 (domain or fragment, UniProt Q13625 920-1120, looked up)
chain: MRVKFNPLALLLDSSLEGEFDLVQRIIYEVDDPSLPNDEGITALHNAVCAGHTEIVKFLVQFGVNVNAADSDGWTPLHCAASCNNVQVCKFLVESGAAVFAMTYSDMQTAADKCEEMEEGYTQCSQFLYGVQEKMGIMNKGVIYALWDYEPQNDDELPMKEGDCMTIIHREDEDEIEWWWARLNDKEGYVPRNLLGLYPRI
notes: ASPP2, human, residues 920-1120 (RVxF motif, ankyrin repeats, SH3 domain); pGEX-6P2 construct; source: E. coli Rosetta (DE3) pLysS, purified (glutathione-Sepharose, 3C cleavage, SEC); for the crystal co-expressed with PP1α^7-330 in E. coli BL21 (DE3)
B5: ASPP2^D1091G/E1092P (domain or fragment, human, UniProt Q13625 920-1120, looked up)
chain: MRVKFNPLALLLDSSLEGEFDLVQRIIYEVDDPSLPNDEGITALHNAVCAGHTEIVKFLVQFGVNVNAADSDGWTPLHCAASCNNVQVCKFLVESGAAVFAMTYSDMQTAADKCEEMEEGYTQCSQFLYGVQEKMGIMNKGVIYALWDYEPQNDDELPMKEGDCMTIIHREGPDEIEWWWARLNDKEGYVPRNLLGLYPRI
notes: ASPP2, human, residues 920-1120 with n-Src loop mutations; also called double mutant mimicking the human iASPP n-Src loop
B7: human iASPP^621-828 (domain or fragment, UniProt Q8WUF5 621-828, looked up)
chain: RRARLNPLVLLLDAALTGELEVVQQAVKEMNDPSQPNEEGITALHNAICGANYSIVDFLITAGANVNSPDSHGWTPLHCAASCNDTVICMALVQHGAAIFATTLSDGATAFEKCDPYREGYADCATYLADVEQSMGLMNSGAVYALWDYSAEFGDELSFREGESVTVLRRDGPEETDWWWAALHGQEGYVPRNYFGLFPRVKPQRSKV
notes: the protein preparation paragraph prints iASPP^608-828 in pGEX-6P2

Legend:
Settings in all cases: both partners purified
[1] = biological target: T1, human PP1α^7-330 (human, UniProt P62136 7-330); experiment: ITC; ASPP2 (25 μM) titrated into His6-tagged PP1 (3–4 μM), 25 °C; 20 mM Tris pH 8, 500 mM NaCl, 0.5 mM TCEP, 1 mM MnCl2
T1 construct: PP1 catalytic subunit alpha, human, residues 7-330; His6 tag kept for ITC and BLI (captured on Ni-NTA sensors); also called full-length PP1α (as the text calls it); source: for the crystal co-expressed with ASPP2^920-1120 in E. coli BL21 (DE3), purified (Ni-NTA, glutathione-Sepharose, SEC)

[2] = biological target: T1, human PP1α^7-330; experiment: BLI; HIS tagged PP1α, PP1β or PP1γ1 (50 μg/ml) immobilised on Ni-NTA biosensors, ASPP in solution in kinetics buffer, 25 °C, 1000 rpm; global fit 1:1 model; apparent KD
[3] = biological target: T2, human PP1β^6-327 (human, UniProt P62140 6-327); experiment: as above
T2 construct: PP1 catalytic subunit beta, human, residues 6-327; source: bacterial culture with GroEL/GroES chaperone; purification for BLI not described

[4] = biological target: T3, human PP1γ1^7-323 (human, UniProt P36873 7-323); experiment: as above
T3 construct: source: bacterial culture with GroEL/GroES chaperone; purification for BLI not described

[5] = biological target: B1; experiment: ITC; PP1 peptides (350–550 μM) titrated into ASPP2^920-1120 (40 μM), 20 °C; 25 mM Tris pH 8.0, 200 mM NaCl, 0.5 mM TCEP; single binding site model; ASPP2 mutants and iASPP in place of ASPP2 for Fig. 6e
[6] = biological target: B7; experiment: as above
[7] = biological target: B5; experiment: as above

## B1
[1]
  Kd: 6.1 nM
[2]
  Kd: 13.6 nM
  half-life of the complex: 0.517 min
[3]
  fold lower affinity than for PP1α (13.6 nM): 13 fold
[4]
  fold lower affinity than for PP1α (13.6 nM): 14 fold

B2: ASPP2^D1091K/E1092V/E1094K (recombinant fragment) (domain or fragment, human, UniProt Q13625 920-1120, looked up)
chain: MRVKFNPLALLLDSSLEGEFDLVQRIIYEVDDPSLPNDEGITALHNAVCAGHTEIVKFLVQFGVNVNAADSDGWTPLHCAASCNNVQVCKFLVESGAAVFAMTYSDMQTAADKCEEMEEGYTQCSQFLYGVQEKMGIMNKGVIYALWDYEPQNDDELPMKEGDCMTIIHREKVDKIEWWWARLNDKEGYVPRNLLGLYPRI
notes: ASPP2, human, residues 920-1120 with n-Src loop mutations; also called ASPP2^KVK; triple mutant mimicking the C. elegans iASPP n-Src loop
[2]
  Kd: 8200 nM

B3: ASPP2^D1093S (domain or fragment, human, UniProt Q13625 920-1120, looked up)
chain: MRVKFNPLALLLDSSLEGEFDLVQRIIYEVDDPSLPNDEGITALHNAVCAGHTEIVKFLVQFGVNVNAADSDGWTPLHCAASCNNVQVCKFLVESGAAVFAMTYSDMQTAADKCEEMEEGYTQCSQFLYGVQEKMGIMNKGVIYALWDYEPQNDDELPMKEGDCMTIIHREDESEIEWWWARLNDKEGYVPRNLLGLYPRI
notes: ASPP2, human, residues 920-1120 with an n-Src loop mutation; also called single ASPP2 mutant mimicking the ASPP1 n-Src loop
[2]
  binding result: binds

B4: ASPP2^E1090K/D1093S (domain or fragment, human, UniProt Q13625 920-1120, looked up)
chain: MRVKFNPLALLLDSSLEGEFDLVQRIIYEVDDPSLPNDEGITALHNAVCAGHTEIVKFLVQFGVNVNAADSDGWTPLHCAASCNNVQVCKFLVESGAAVFAMTYSDMQTAADKCEEMEEGYTQCSQFLYGVQEKMGIMNKGVIYALWDYEPQNDDELPMKEGDCMTIIHRKDESEIEWWWARLNDKEGYVPRNLLGLYPRI
notes: ASPP2, human, residues 920-1120 with n-Src loop mutations; also called double ASPP2 mutant mimicking the ASPP1 n-Src loop
[2]
  binding result: binds

## B5
[2]
  binding result: binds

B6: PP1γ1^298-323 C-tail peptide (peptide, UniProt P36873 298-323, looked up)
peptide: PAEKKKPNATRPVTPPRGMITKQAKK
notes: source: synthetic peptide (LRI peptide synthesis core facility)
[5]
  fold lower affinity than PP1α^301-330 (143 nM): 5 fold

## B7
[2]
  Kd: 2.6 nM
  fold lower koff than ASPP2 on PP1α: 110 fold
  fold lower kon than ASPP2 on PP1α: 7 fold
  half-life of the complex: 58 min
[4]
  fold preference for PP1α and PP1β over PP1γ1: 2 fold

B8: PP1α^301-330 C-tail peptide (peptide, UniProt P62136 301-330, looked up)
peptide: KNKGKYGQFSGLNPGGRPITPPRNSAKAKK
notes: also called PP1α C-tail; source: synthetic peptide (LRI peptide synthesis core facility)
[6]
  Kd: 395 nM
[7]
  binding result: binds
[5]
  Kd: 143 nM

B9: PP1α^301-330 K330A peptide (peptide, UniProt P62136 301-330, looked up)
peptide: KNKGKYGQFSGLNPGGRPITPPRNSAKAKA
notes: as for B6
[5]
  binding result: binds

B10: PP1α^301-330 K329A peptide (peptide, UniProt P62136 301-330, looked up)
peptide: KNKGKYGQFSGLNPGGRPITPPRNSAKAAK
notes: as for B6
[5]
  binding result: binds

B11: PP1α^301-330 K327A peptide (peptide, UniProt P62136 301-330, looked up)
peptide: KNKGKYGQFSGLNPGGRPITPPRNSAAAKK
notes: also called PP1α^K327 to alanine; source: synthetic peptide (LRI peptide synthesis core facility)
[5]
  fold decrease in affinity against PP1α^301-330: 4 fold

B12: PP1α^301-330 3KA peptide (peptide, UniProt P62136 301-330, looked up)
peptide: KNKGKYGQFSGLNPGGRPITPPRNSAAAAA
notes: also called PP1α 3KA; source: synthetic peptide (LRI peptide synthesis core facility)
[6]
  Kd: 690 nM
[5]
  Kd: 1900 nM

B13: PP1α^317-330 peptide (peptide)
peptide: RPITPPRNSAKAKK
notes: PP1α, human, residues 324-330; source: synthetic peptide (LRI peptide synthesis core facility)
[5]
  Kd: 270 nM

B14: human ASPP1^882-1090 (domain or fragment, UniProt Q96KQ4 882-1090, looked up)
chain: LRVRFNPLALLLDASLEGEFDLVQRIIYEVEDPSKPNDEGITPLHNAVCAGHHHIVKFLLDFGVNVNAADSDGWTPLHCAASCNSVHLCKQLVESGAAIFASTISDIETAADKCEEMEEGYIQCSQFLYGVQEKLGVMNKGVAYALWDYEAQNSDELSFHEGDALTILRRKDESETEWWWARLGDREGYVPKNLLGLYPRIKPRQRTLA
notes: ASPP1, human, residues 882-1090; source: pGEX-6P2 construct; expression and purification described only for ASPP2
[2]
  binding result: binds
[3]
  binding result: binds
[4]
  binding result: binds

B15: ASPP1^K1052E/S1055D (domain or fragment, human, UniProt Q96KQ4 882-1090, looked up)
chain: LRVRFNPLALLLDASLEGEFDLVQRIIYEVEDPSKPNDEGITPLHNAVCAGHHHIVKFLLDFGVNVNAADSDGWTPLHCAASCNSVHLCKQLVESGAAIFASTISDIETAADKCEEMEEGYIQCSQFLYGVQEKLGVMNKGVAYALWDYEAQNSDELSFHEGDALTILRREDEDETEWWWARLGDREGYVPKNLLGLYPRIKPRQRTLA
notes: ASPP1, human, residues 882-1090 with n-Src loop residues 1 and 4 changed to the ASPP2 residues
[2]
  binding result: binds

B16: PP1γ2^297-324 C-tail peptide (peptide, UniProt P36873-2 297-324, looked up)
peptide: KPAEKKKPNATRPVTPPRVASGLNPSIQ
notes: PP1 catalytic subunit gamma, testis-specific isoform γ2, human, residues 297-324; source: synthetic peptide (LRI peptide synthesis core facility)
[5]
  fold lower affinity than PP1α^301-330 (143 nM): 15 fold

B17: PP1β^297-327 C-tail peptide (peptide, UniProt P62140 297-327, looked up)
peptide: PSEKKAKYQYGGLNSGRPVTPPRTANPPKKR
notes: PP1 catalytic subunit beta, human, residues 297-327; source: synthetic peptide (LRI peptide synthesis core facility)
[5]
  fold lower affinity than PP1α^301-330 (143 nM): 7 fold

B18: PP1α^317-323 core PPII motif peptide (peptide)
peptide: RPITPPR
notes: as for B6
[5]
  Kd: 5650 nM
